Measured values: PMC7090004, “IL28A protein homotetramer structure is required for autolysosomal degradation of HCV-NS5A in vitro” (Cell Death & Disease, 2020)

Experiments:
Flag-IL28A-D0 (human) = Flag-IL28A-D0 (human) (UniProt Q8IZJ0); assay: SDS-PAGE and Western blot (band of about 70 kDa)
[1] = target: the molecule itself; assay: SDS-PAGE and Western blot (tetramer and monomer bands)

With “Flag-IL28A-D0 (from UniProt Q8IZJ0 26-200) (natural protein)” the stoichiometry N (Flag-IL28A-D0 (human)) was 4.

B1: Interferon lambda-2 (IL28A), wild type (natural protein, human, UniProt Q8IZJ0 26-200, looked up)
chain: VPVARLHGALPDARGCHIAQFKSLSPQELQAFKRAKDALEESLLLKDCRCHSRLFPRTWDLRQLQVRERPMALEAELALTLKVLEATADTDPALVDVLDQPLHTLHHILSQFRACIQPQPTAGPRTRGRLHHWLYRLQEAPKKESPGCLEASVTFNLFRLLTRDLNCVASGDLCV
notes: also called WT IL28A; IL28A overexpression construct
In the case of B1, the “stoichiometry N” value [1] is reported as 4.
